# Publication PMC3499431
# Target: 3xFlag20Q-htt (full-length humanized normal huntingtin, chimeric mouse/human exon 1 with a 20Q stretch and the human PRR, with a 3xFlag N-terminal epitope tag) (mouse | human)
# Test: co-IP; 500 ug whole brain cytoplasmic extract (mice 13, 16 or 27 months old) with 5-6 ug FLAG M2 or 1C2 antibody overnight at 4°C, captured on Protein G-agarose beads for 3 hr; same extraction buffer; eluted by boiling in SDS sample buffer; bound and non-bound fractions blotted with 1C2 and MAB2166; control without antibody
substance,measurement,value
"140Q-htt (soluble full-length mutant huntingtin of the CAG140 knock-in allele, chimeric mouse/human exon 1 with a 140Q stretch and the human PRR) (natural protein)",percent of soluble full-length mutant htt associated with 3xFlag20Q-htt,< 2.5%
